Several values for one entry are separate records, joined by “and”; a condition that tells them apart may be missing. Equal entries are not always repeated.
Assays:
C. neoformans [1] = assay: Minimum inhibiting concentration (MIC) assay, alone or in association with AmB or FLC; assay type: cell-based, Cryptococcus neoformans; conditions: 48 hours at 37° C.
Description: C. neoformans cells were cultivated in RPMI 1640 buffered with MOPS in pH 7 at 10^5 cell/well density in 96-well plates in 200 μl final volume. Systems were supplemented with AcM at concentration (25 to 0.05 μg/ml), AmB (1 to 0.1 lμg/ml) or FLC (8 to 2 μg/ml), alone or in association. After 48 hours of incubation at 37° C. under agitation, cells were suspended by pipetting for spectrophotometer reading at 592 nm wavelength.
AcMs fungicide activity was tested through CIM test. […] It was assessed if AcMs association with AmB or FLC would trigger antifungal effects in sub-inhibiting concentrations, thus 1 μg/ml concentrations of AmB and 4 and 2 μg/ml to FLC in combination with AcMs different concentrations. To assess whether there was combining effect of AcMs with drug, it was used as drug action base in isolate form.

C. neoformans strain H99 = assay: Survival trial, lethal i.p. challenge; assay type: in vivo, Balb/C line mice; conditions: AmB standard dose 2.5 mg/kg alone; data not provided
Description: Balb/C line mice (n=7) were lethally challenged via i.p. with 10^5 cells in PBS of C. neoformans (H99) and treated 2 hours later with 100 μl of AmB (2.5 mg/kg and 0.25 mg/kg), 100 μl of AcM (85 μg/ml) and 100 μl of AcM and AmB combined solution (0.25 mg/kg). Control animals were challenged only by C. neoformans (H99) or only with 100 μl of a solution of PBS, AmB (2.5 mg/kg) or AcM (85 μg/ml) without fungus (adapted from Liedke et al.). Survival rate was achieved and analysis was extended up to 90 days after infection, presenting statistical value with p<0.005.
Mice were lethally challenged with inoculant i.p. of 1×10^5 cells of yeast C. neoformans strain H99. After 2 hours, they were treated with PBS (negative control), 85 μg/animal of AcM (HC6/DD11) in isolate form, 0.25 or 2.5 mg/kg of AmB in isolate form, and in synergic form, AcM keeping test concentrations. Treatments were repeated for another two times, with 10-day interval.

C. albicans [2] = assay: Biofilm development, XTT reduction trial; assay type: cell-based, Candida albicans; conditions: AcM 25 μg/ml, 48 hours at 37° C., vs fungus without treatment, p<0.05
Description: (§1) C. neoformans (H99 and Cap67) and Candida albicans were cultivated in Sabouraud media for 24 hours at 30° C. Cellular suspensions were centrifuged for 5 minutes at 3000 g, washed 3 times in PBC and suspended in minimum media (20 mg/ml thiamin, 30 mm glucose, 26 mM glycine, 20 mM MgSO4, and 58.8 mM KH2PO4). Then, they were added to 96-well plates (100 μl/well—1×10^6 células/ml) and cultivated for 48 hours at 37° C. at presence of AcM (HC6/DD11 and AF1/CC5) and AcM anti-GXM 18B7 (only to H99) at 25 μg/ml concentration, keeping under agitation for 30 minutes, for AcM total homogenization with fungi. As control, drug AmB was used at 1 μg/ml concentration.
(§2) Two analysis systems were performed: in the first, cells were washed, so that non-adhering cells were removed and only cells bonded to biofilm under development remained; in the second system, cells were not washed and all cells adhered or not to substrate were quantified.
(§3) Viable cell metabolic activity in both trials was assessed by the method based on decrease of XTT (2-methoxy-4-nitro-5-sulfophenyl)-5-[(phenylamino) carbonyl]-2H-tetrazolium hydroxide) in spectrophotometer at 492 nm of wavelength.
(§4) AcMs were tested (25 μg/ml) against three fungus species (C. albicans, C. neoformans—H99—and acapsular mutant of C. neoformans—Cap67), with control by AcM anti-GXM 18B7 (25 μg/ml) only to H99. In the first assay (FIGS. 14A and B), cellular suspensions were washed to remove non-adhering cells to substrate. […] In second assay (FIGS. 14C and D), cellular suspensions were not washed, and again AcM inhibited biofilm development (p<0.05) compared to cell not treated with antibodies. In both assays, cell growth was observed.

C. albicans [3] = assay: Indirect ELISA against intact cells using poly-L-Lysine (PL); assay type: binding, Candida albicans; conditions: 10^4 and 10^5 cells/ml
Description: (§5) For this test, C. neoformans (H99), Candida albicans, Giardia lamblia, human lung line cell A549 (ATCC), Escherichia coli and Staphylococcus aureus. Cells were washed in PBS three times and suspended at 10^7 cell/ml density in poly-L-Lysine (5 μg/ml in PBS) for adherence at night at 4° C. The next day, plates were blocked with PBS/BSA 5% and incubated for 1 hour at 37° C., then they are incubated for 1 hour at 37° C. with anti-chitooligomer AcM at 50 μg/ml concentration and diluted at 5 μg/ml. Then, washing with PBS/Tween 0.05% was performed for 3 times and anti-IgM murine peroxidase was added diluted 1:5000 and incubated for 2 hours at 37° C. Plates were washed again and TMB was added and incubated for 30 minutes at 37° C.
(§6) Reaction was stopped with HCl 1 N and reading with spectrophotometer at 450 nm. After this trial, seriated dilutions were performed at density of cells 10^7 until 10 cells/ml to fungi and 10^7 until 10^4 cells/ml to other cellular types and tested of AcM anti-chitooligomer at 25 μg/ml concentration, followed by the same procedures abovementioned. […]
(§7) In this trial, 10^7 cell/ml of C. albicans were used to perform an absorbance curve, in which it was observed that there was a 25 μg/ml concentration reliable signal of both AcM, as above such value the curve starts to enter in plateau, as provided in FIG. 9. […]

[4] = test system: acapsular mutant of C. neoformans Cap67; assay: Biofilm development, XTT reduction trial; assay type: cell-based, Cryptococcus neoformans; conditions: AcM 25 μg/ml, 48 hours at 37° C., vs fungus without treatment, p<0.05
Description: as §1, §2, §3, §4

Candida albicans = assay: Immunofluorescence of AcM anti-chitooligomer against intact cells; assay type: binding; conditions: AcM 25 μg/mL, 1 h at 37° C.; anti-IgM Alexa 568; calcofluor
Description: Fungal cells (10^6 cells)) were fastened (cacodylate paraformolaldehyde buffer 4%; 30 min) and blocked later (PBS/BSA 1%; 1 hour). Then, they were incubated with AcM anti-chitooligomer(25 μg/mL; 1 h at 37° C.) After washing with PBS, cells were incubated with mouse anti-IgM antibody conjugated at Alexa 568 (SIGMA; 1:1000). After PBS washing, cells were incubated with 25 μM of white calcofluor (Invitrogen) and washed again. Cellular suspensions were assembled in glass blades and assessed under microscope Olympus AX70, coupled to camera system (QImaging Retiga 1300) and assessed in QCapture suite V2.46 software.
From reliable and ELISA and Dot Blot trials, biological activity validation tests. Thus, AcMs were used through immunofluorescence (IF), using the pathogen Candida albicans as template. AcMs were efficient at fungal cellular wall labeling, showing the same profile whenever standard marker is used (lectin), data not provided.

C. neoformans [5] = assay: Melanization trial (L-DOPA); assay type: cell-based, Cryptococcus neoformans
Description: C. neoformans cultivation was performed as paragraph and cellular suspension (1×10^6 cells/ml) was cultivated for 72 hours in minimum media supplemented with 1 mM of L-DOPA in 96-well plate of U-shape bottom. Antibodies HC6/DD11 and AF1/CC5 were added to minimum media within 25 to 0.05 μg/ml concentration range. The plate was centrifuged and pigment development quantification was defined densitometrically upon image scanning by iBright FL1000 Invitrogen equipment.
AcM HC6/DD11 e AF1/CC5 established concentrations were 0.2 to 25 μg/ml. L-DOPA was used with substrate to melanization.
Pigmentation in C. neoformans was assessed through brown to black sedimentation observation in 96-well plate bottom. To document pigmentation or inhibition, plates were photographed over white surfaces (clear bottom), to enable differentiation between pigmented and non-pigmented populations. It shall be noted that every AcM dose presents fungal growth, however with negative pigmentation or partial inhibition.

C. neoformans (H99) = assay: Indirect ELISA against intact cells using poly-L-Lysine (PL); assay type: binding, Cryptococcus neoformans; conditions: 10^4 and 10^5 cells/ml
Description: as §5, §6, §7

C. neoformans H99 = assay: Biofilm development, XTT reduction trial; assay type: cell-based, Cryptococcus neoformans; conditions: AcM 25 μg/ml, 48 hours at 37° C., vs fungus without treatment, p<0.05
Description: as §1, §2, §3, §4
AcMs were compared to AcM anti-GXM 18B7 concerning biofilm development inhibition.

Molecule | concentration with fungicide effect (control drug alone) (C. neoformans [1]) [µg/mL] | death of infected animals (C. neoformans strain H99) | biofilm development (XTT reduction) (C. albicans [2]; non-washed cells) | biofilm development (XTT reduction) (C. albicans [2]; washed cells) | ELISA signal in cell saturation curve (C. albicans [3]) | biofilm development (XTT reduction) ([4]; non-washed cells) | biofilm development (XTT reduction) ([4]; washed cells) | fungal cellular wall labeling by immunofluorescence (Candida albicans) | melanization in lower concentrations (C. neoformans [5]; concentrations lower than 1.6 μg/ml, p>0.05) | AcM concentration with partial inhibition of melanization/pigmentation (C. neoformans [5]; series 25 to 0.2 μg/ml, 72 hours, 1 mM L-DOPA, p<0.05) | ELISA signal in cell saturation curve (C. neoformans (H99)) | biofilm development (XTT reduction) (C. neoformans H99; non-washed cells) | biofilm development (XTT reduction) (C. neoformans H99; washed cells)
C[C@@H]1[C@H](O)[C@@H](C)/C=C/C=C/C=C/C=C/C=C/C=C/C=C/[C@H](O[C@@H]2O[C@H](C)[C@@H](O)[C@H](N)[C@@H]2O)C[C@@H]2O[C@](O)(C[C@@H](O)C[C@@H](O)[C@H](O)CC[C@@H](O)C[C@@H](O)CC(=O)O[C@H]1C)C[C@H](O)[C@H]2C(=O)O [AmB, amphotericin polyene B, reference compound] | 1 | did not die |  |  |  |  |  |  |  |  |  |  | 
OC(Cn1cncn1)(Cn1cncn1)c1ccc(F)cc1F [FLC, Fluconazole] | 8 |  |  |  |  |  |  |  |  |  |  |  | 
AF1/CC5: murine IgM monoclonal antibody against chitooligomers (chitotriose); VH SEQ ID NO: 19, VL SEQ ID NO: 20 (antibody, listed as Mus musculus, V domains shown) VH: STGQVKLEESGGGLVQPGGSMKLSCAASGFTFSDAWMDWVRQSPEKGLEWVAEIRSKANNHATYYAESVKGRFTISRDDSKSSVYLQMNSLRAEDTGIYYCTRHRYDGFDYWGQGTTLTFP VL: DYFLASQGEVTMTCSASSSISYMHWYQQKPGTSPKRWIYDTSKLASGVPARFSGSGSGTSYSLTISSMEAEDAATYYCHQRSSYPCTFGAGTKLELKRADAAPTVSLETKTS |  |  | reduced biofilm development significantly | reduced biofilm development significantly | a plateau to both cells was achieved | reduced biofilm development significantly | reduced biofilm development significantly | characteristic polar label | not significant inhibition | 3.2 µg/mL and 1.6 µg/mL | a plateau to both cells was achieved | reduced biofilm development significantly | reduced biofilm development significantly
